The target in this assay is glucagon receptor (human, UniProt P47871 26-477). Kind of assay: cell-based or functional assay.

*1 amine or outer side, *2 acyl side, *3 side chain or, on linkers, in order; H or OH if unused. Where no end group is shown, it is not given here. Side-chain parts run from the residue outwards. The star is where a group is joined. C20 diacid = O=C(O)CCCCCCCCCCCCCCCCCCC(=O)*; C18 diacid = O=C(O)CCCCCCCCCCCCCCCCC(=O)*; C16 diacid = O=C(O)CCCCCCCCCCCCCCC(=O)*; γGlu = O=C(O)[C@H](CCC(=O)[*:2])N[*:1]; C14 diacid = O=C(O)CCCCCCCCCCCCC(=O)*; AEEA = NCCOCCOCC(=O)O

Sequence of glucagon receptor (P47871 26-477): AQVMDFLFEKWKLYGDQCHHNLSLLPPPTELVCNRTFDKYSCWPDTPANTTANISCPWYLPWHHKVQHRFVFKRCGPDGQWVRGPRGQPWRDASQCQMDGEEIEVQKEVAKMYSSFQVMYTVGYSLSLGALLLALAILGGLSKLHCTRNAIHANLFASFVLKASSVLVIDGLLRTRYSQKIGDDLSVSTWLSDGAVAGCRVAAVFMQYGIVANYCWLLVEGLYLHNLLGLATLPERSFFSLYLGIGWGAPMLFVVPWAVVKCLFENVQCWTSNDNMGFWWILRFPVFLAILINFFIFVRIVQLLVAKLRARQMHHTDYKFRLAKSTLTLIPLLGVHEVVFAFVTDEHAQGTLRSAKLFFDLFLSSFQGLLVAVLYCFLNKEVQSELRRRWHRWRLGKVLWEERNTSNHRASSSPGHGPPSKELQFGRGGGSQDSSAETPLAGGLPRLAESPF

With HSQGTFTSDYSKYLDTRRAQDFVK([AEEA-γGlu-γGlu-AEEA-γGlu-C18 diacid])WLLST, the “Assay (I) Glucagon [EC50]” value turned out to be 0.078 nM. On to HSQGTFTSDYSKYLDARRAQDFVK([γGlu-γGlu-AEEA-AEEA-γGlu-C18 diacid])WLLST, for which the “Assay (I) Glucagon [EC50]” value worked out at 0.049 nM. In the case of HSQGTFTSDYSRYLDRRRAQDFVK([γGlu-γGlu-AEEA-AEEA-γGlu-C18 diacid])WLLST it was 0.355 nM; in that of HSQGTFTSDYSRYLDLRRAQDFVK([γGlu-γGlu-AEEA-AEEA-γGlu-C18 diacid])WLLIT, 1.67 nM.

Take HSHGTFTSDYSKYLDSRRAQDFVK([γGlu-γGlu-AEEA-AEEA-γGlu-C18 diacid])WLLST: the “Assay (I) Glucagon [EC50]” value amounted to 0.129 nM. With HSQGTFTSDVSKYLDTRRAQEFVK([γGlu-γGlu-AEEA-AEEA-γGlu-C18 diacid])WLLST, the “Assay (I) Glucagon [EC50]” value worked out at 0.139 nM.

As for HSQGTFTSDYSRYLDLRRAQDFVK([γGlu-AEEA-AEEA-γGlu-γGlu-C18 diacid])WLLST, the “Assay (I) Glucagon [EC50]” value came out at 0.91 nM. Next, HSQGTFTSDYSKYLESRRAQDFVK([γGlu-γGlu-AEEA-γGlu-C18 diacid])WLLST: 0.28 nM; HSQGTFTSDYSRYLDARRAQDFVK([γGlu-γGlu-AEEA-AEEA-γGlu-C18 diacid])WLLST: 0.158 nM; HSQGTFTSDYSRYLDLRRAQDFVK([γGlu-γGlu-AEEA-AEEA-γGlu-C18 diacid])WLLST: 0.255 nM. In the case of HSQGTFTSDYSKYLDIRRAQDFVK([γGlu-γGlu-AEEA-AEEA-γGlu-C18 diacid])WLLST, the “Assay (I) Glucagon [EC50]” value was 0.084 nM.

Turning to HSQGTFTSDYSKYLDTRRAQDFVK([γGlu-γGlu-AEEA-AEEA-γGlu-C18 diacid])WLLST, the “Assay (I) Glucagon [EC50]” value turned out to be 0.075 nM. Next, HSQGTFTSDYSRYLDLRRAQDFVK([γGlu-γGlu-γGlu-C18 diacid])WLLST: 1.32 nM; HSQGTFTSDYSRYLDLRRAQDFVK([AEEA-AEEA-γGlu-γGlu-γGlu-C18 diacid])WLLST: 0.1 nM; HSHGTFTSDYSKYLDERRAKDFVK([γGlu-γGlu-AEEA-AEEA-γGlu-C18 diacid])WLLST: 0.237 nM.

Take HSQGTFTSDYSKYLESRRAQDFVK([γGlu-AEEA-AEEA-γGlu-C18 diacid])WLLNV: the “Assay (I) Glucagon [EC50]” value turned out to be 0.92 nM. For HSQGTFTSDYSRYLDLRRAQDFVK([γGlu-γGlu-AEEA-AEEA-γGlu-C20 diacid])WLLST, the “Assay (I) Glucagon [EC50]” value is 1.07 nM. Regarding HSQGTFTSDYSRYLDLRRAQDFVK([γGlu-γGlu-AEEA-AEEA-γGlu-C18 diacid])WLLTT, the “Assay (I) Glucagon [EC50]” value came to 0.754 nM.

B1: N^ε24-[(4S)-4-carboxy-4-[[(4S)-4-carboxy-4-[[2-[2-[2-[[2-[2-[2-[[(4S)-4-carboxy-4-(17-carboxyheptadecanoylamino)butanoyl]amino]ethoxy]ethoxy]acetyl]amino]ethoxy … (peptide)
peptide: HSQGTFTSDYSRYLESRRAQDFVK([γGlu-γGlu-AEEA-AEEA-γGlu-C18 diacid])WLLST
modifications: not fully specified; printed as Nε24-[(4S)-4-carboxy-4-[[(4S)-4-carboxy-4-[[2-[2-[2-[[2-[2-[2-[[(4S)-4-carboxy-4-(17-carboxyheptadecanoylamino)butanoyl]amino]ethoxy]ethoxy]acetyl]amino]ethoxy]ethoxy]acetyl]amino]butanoyl]amino]butanoyl]-[Arg12,Glu15,Lys24,Leu27,Ser25]-Glucagon
In the case of B1, the “Assay (I) Glucagon [EC50]” value turned out to be 0.748 nM. Take HSQGTFTSDYSRYLDVRRAQDFVK([γGlu-γGlu-AEEA-AEEA-γGlu-C18 diacid])WLLST: the “Assay (I) Glucagon [EC50]” value stood at 1.32 nM. Take HSQGTFTSDYSKYLDVRRAQDFVK([γGlu-γGlu-AEEA-AEEA-γGlu-C18 diacid])WLLST: the “Assay (I) Glucagon [EC50]” value worked out at 0.307 nM.

B2: N^ε24-[(4S)-4-carboxy-4-[[(4S)-4-carboxy-4-[[2-[2-[2-[[2-[2-[2-[[(4S)-4-carboxy-4-(17-carboxyheptadecanoylamino)butanoyl]amino]ethoxy]ethoxy]acetyl]amino]ethoxy … (peptide)
peptide: HSQGTFTSDYSKYLDTRRAQDFVK([γGlu-γGlu-AEEA-AEEA-γGlu-C18 diacid])WLLST-NH2
modifications: N-terminus assumed
SMILES: CC(C)C[C@H](NC(=O)[C@H](Cc1c[nH]c2ccccc12)NC(=O)[C@H](CCCCNC(=O)CC[C@H](NC(=O)CC[C@H](NC(=O)COCCOCCNC(=O)COCCOCCNC(=O)CC[C@H](NC(=O)CCCCCCCCCCCCCCCCC(=O)O)C(=O)O)C(=O)O)C(=O)O)NC(=O)[C@@H](NC(=O)[C@H](Cc1ccccc1)NC(=O)[C@H](CC(=O)O)NC(=O)[C@H](CCC(N)=O)NC(=O)[C@H](C)NC(=O)[C@H](CCCNC(=N)N)NC(=O)[C@H](CCCNC(=N)N)NC(=O)[C@@H](NC(=O)[C@H](CC(=O)O)NC(=O)[C@H](CC(C)C)NC(=O)[C@H](Cc1ccc(O)cc1)NC(=O)[C@H](CCCCN)NC(=O)[C@H](CO)NC(=O)[C@H](Cc1ccc(O)cc1)NC(=O)[C@H](CC(=O)O)NC(=O)[C@H](CO)NC(=O)[C@@H](NC(=O)[C@H](Cc1ccccc1)NC(=O)[C@@H](NC(=O)CNC(=O)[C@H](CCC(N)=O)NC(=O)[C@H](CO)NC(=O)[C@@H](N)Cc1c[nH]cn1)[C@@H](C)O)[C@@H](C)O)[C@@H](C)O)C(C)C)C(=O)N[C@@H](CC(C)C)C(=O)N[C@@H](CO)C(=O)N[C@H](C(N)=O)[C@@H](C)O
Turning to B2, the “Assay (I) Glucagon [EC50]” value was 0.039 nM. In the case of HSQGTFTSDYSRYLDIRRAQDFVK([γGlu-γGlu-AEEA-AEEA-γGlu-C18 diacid])WLLST it was 1.04 nM; in that of HSQGTFTSDYSKYLDTRRAQEFVK([γGlu-γGlu-AEEA-AEEA-γGlu-C18 diacid])WLLST, 0.072 nM; in that of HSQGTFTSDYSKYLDERRAQDFVK([γGlu-γGlu-AEEA-AEEA-γGlu-C18 diacid])WLLST, 0.13 nM.

As to HSQGTFTSDYSKYLDTRRAQEFVK([γGlu-AEEA-AEEA-γGlu-C18 diacid])WLLNL, the “Assay (I) Glucagon [EC50]” value is 0.183 nM.

Take HSQGTFTSDYSRYLDFRRAQDFVK([γGlu-γGlu-AEEA-AEEA-γGlu-C18 diacid])WLLST: the “Assay (I) Glucagon [EC50]” value was 1.64 nM.

For the molecule HSQGTFTSDYSRYLDLRRAQDFVK([γGlu-γGlu-AEEA-AEEA-γGlu-C16 diacid])WLLST, the “Assay (I) Glucagon [EC50]” value was determined as 0.067 nM. Next, HSQGTFTSDYSKYLESRRAQDFVK([γGlu-AEEA-AEEA-γGlu-C18 diacid])WLLNL: 1.9 nM; HSQGTFTSDYSKYLDTRRAQEFVK([γGlu-AEEA-AEEA-γGlu-C18 diacid])WLLNV: 0.12 nM; HSQGTFTSDYSRYLDTRRAQDFVK([γGlu-γGlu-AEEA-AEEA-γGlu-C18 diacid])WLLNT: 0.031 nM. Turning to HSHGTFTSDYSKYLDSRRAKDFVK([γGlu-γGlu-AEEA-AEEA-γGlu-C18 diacid])WLLST, the “Assay (I) Glucagon [EC50]” value is 0.249 nM. Next, HSQGTFTSDYSRYLDERRAQDFVK([γGlu-γGlu-AEEA-AEEA-γGlu-C18 diacid])WLLST: 0.153 nM; HSQGTFTSDYSKYLDTRRAQDFVK([γGlu-AEEA-AEEA-γGlu-C18 diacid])WLLNI: 0.413 nM; HSQGTFTSDYSRYLDLRRAQDFVK([γGlu-γGlu-AEEA-AEEA-γGlu-C14 diacid])WLLST: 0.006 nM. Take HSQGTFTSDYSKYLESRRAQDFVK([γGlu-AEEA-AEEA-γGlu-C18 diacid])WLLNI: the “Assay (I) Glucagon [EC50]” value stood at 1.12 nM. With HSQGTFTSDYSRYLDTRRAQDFVK([γGlu-γGlu-AEEA-AEEA-γGlu-C18 diacid])WLLST, the “Assay (I) Glucagon [EC50]” value was 0.297 nM.

The values are drawn from patent US20130079278A1 (Novo Nordisk, published 2013).
